Patent US20210380680A1 (ZLLP, published 2021)
Read-outs that look alike come from different tables or passages of the source.

Columns and labels:
[1] = molecular target: T1, human Claudin 18.2 (CLDN18.2) (human, UniProt P56856-2 1-261); test: FACS
T1 construct: whole, on cells; recombinantly expressed on CHO, HEK293, NCI-N87, NUGC4 or PANC-1 cells; also called CHO-CLDN18.2

[2] = molecular target: T1, human Claudin 18.2 (CLDN18.2); test: FACS on CHO-CLDN18.2 cells
[3] = molecular target: T1, human Claudin 18.2 (CLDN18.2); test: cell-based or functional assay
[4] = molecular target: T1, human Claudin 18.2 (CLDN18.2); test: cell-based or functional assay; remark: listed apart in the source
[5] = molecular target: T1, human Claudin 18.2 (CLDN18.2); test: cell-based or functional assay; remark: listed apart in the source
[6] = molecular target: T1, human Claudin 18.2 (CLDN18.2); test: cell-based or functional assay; remark: listed apart in the source

| Binder | binding result [1] | ADCC EC50, NUGC4-CLDN18.2, PBMC [6] | other results |
| --- | --- | --- | --- |
| 282A12F3-VH-N60E (antibody, human IgG1, kappa, V domains shown, chimeric human IgG1, PTM site removed) VH: QVQLKESGPVLVQPSQTLSLTCTVAGFSLTSYNVYWVRQPPGKGLEWMGVIWNTGATRYESTLKSRLSISKDTSKSQVFLKMNSLQTEDTATYYCARDSAMPAIPFAYWGQGTLVTVSS VL: DIVMTQSPSSLAVSAGETVTINCKSSQSLFGSVRQKNYLAWYQQKPGQSPKLLIYLASTRESGVPDRFIGSGSGTDFTLTISSVQAEDLAKYYCQQYYDIPWTFGGGTKLELKR | binds | – | – |
| 282A12F3-VH-N60Q (antibody, human IgG1, kappa, V domains shown, chimeric human IgG1, PTM site removed) VH: QVQLKESGPVLVQPSQTLSLTCTVAGFSLTSYNVYWVRQPPGKGLEWMGVIWNTGATRYQSTLKSRLSISKDTSKSQVFLKMNSLQTEDTATYYCARDSAMPAIPFAYWGQGTLVTVSS VL: DIVMTQSPSSLAVSAGETVTINCKSSQSLFGSVRQKNYLAWYQQKPGQSPKLLIYLASTRESGVPDRFIGSGSGTDFTLTISSVQAEDLAKYYCQQYYDIPWTFGGGTKLELKR | binds | – | – |
| 413H9F8-H2L2 (antibody, V domains shown, humanized IgG; constant regions not specified) VH: EVQLVESGGGLVQPGGSLRLSCAASGFTFSSFGMHWVRQAPGKGLEWVAYISSGSSPIYYVDKLKGRFTISRDNAKNSLYLQMNSLRAEDTAVYYCARAGYAVRNALDYWGQGTLVTVSS VL: DIVMTQSPDSLAVSLGERATINCKSSQSLLNVGNQKNYLAWYQQKPGQPPKLLIYGASTRESGVPDRFSGSGSGTDFTLTISSLQAEDVAVYFCQNDLFYPLTFGGGTKVEIK | – | 0.48 nM | EC50 [2]: 1.97 nM; % ADCC @ 6.67 nM, NCI-N87-CLDN18.2, FcR-TANK [3]: 13.7%; ADCC EC50, NCI-N87-CLDN18.2, FcR-TANK [3]: 0.33 nM; % specific cytotoxicity @ 6.67 nM, NUGC4-CLDN18.2, PBMC [4]: 33.2%; ADCC EC50, NUGC4-CLDN18.2, PBMC [4]: 6.14 nM; CDC EC50, human serum, CHO-CLDN18.2 [5]: 0.84 nM |
| 413H9F8-H2L2-MG-DL (antibody, V domains shown) VH: EVQLVESGGGLVQPGGSLRLSCAASGFTFSSFGMHWVRQAPGKGLEWVAYISSGSSPIYYVDKLKGRFTISRDNAKNSLYLQMNSLRAEDTAVYYCARAGYAVRNALDYWGQGTLVTVSS VL: DIVMTQSPDSLAVSLGERATINCKSSQSLLNVGNQKNYLAWYQQKPGQPPKLLIYGASTRESGVPDRFSGSGSGTDFTLTISSLQAEDVAVYFCQNDLFYPLTFGGGTKVEIK | – | 0.0046 nM | – |
| 413H9F8-H2L2-V2-DL (antibody, V domains shown) VH: EVQLVESGGGLVQPGGSLRLSCAASGFTFSSFGMHWVRQAPGKGLEWVAYISSGSSPIYYVDKLKGRFTISRDNAKNSLYLQMNSLRAEDTAVYYCARAGYAVRNALDYWGQGTLVTVSS VL: DIVMTQSPDSLAVSLGERATINCKSSQSLLNVGNQKNYLAWYQQKPGQPPKLLIYGASTRESGVPDRFSGSGSGTDFTLTISSLQAEDVAVYFCQNDLFYPLTFGGGTKVEIK | – | 0.0148 nM | – |
| 364D1A7-VL-N31E (antibody, human IgG1, kappa, V domains shown, chimeric human IgG1, PTM site removed) VH: DVQLVESGGGLVQPGGSRKLSCAASGFTFSSFGMHWVRQAPEKGLEWVAYISSGSGSIYYADTVKGRFTLSRDNPKNTLFLQMTSLRSEDTAIYYCATSYYYGNALEYWGQGTSVTVSS VL: DVVLTQSPSSLTVTEGEKVSMSCKSSQSLFESGNQKNYLTWYQQKPGQTPTLLIYWASTRKSGVPDRFTGSGSGTDFTLTINTVQAEDLAVYYCQNVYSYPLTFGAGTKLDLKR | binds | – | – |
| 413H9F8-VL-N31E (antibody, human IgG1, kappa, V domains shown, chimeric human IgG1, PTM site removed) VH: DVQLVESGGGSVQPGGSRRLSCAASGFTFSSFGMHWVRQAPEKGLEWVAYISSGSSPIYYVDKLKGRFTVSRDNPKNTLFLQMTSLRSEDTAMYYCARAGYAVRNALDYWGQGTSITVSS VL: DIVMTQSPSSLSVSVGEKVTLSCKSSQSLLESGNQKNYLAWYQQKTGQPPKLLIYGASTRESGVPDRFIGSGSGTDFTLTISSVQAEDLAVYFCQNDLFYPLTFGAGTKLELKR | binds | – | – |
